FireProtDB (doi:10.1021/bi960052u)

Details: Equus caballus, pH 7, 10 °C, GdnHCl, Fluorescence, Sodium phosphate 0.1 M

Sequence of Cytochrome c L95I, P00004 (P00004 whole entry L95I): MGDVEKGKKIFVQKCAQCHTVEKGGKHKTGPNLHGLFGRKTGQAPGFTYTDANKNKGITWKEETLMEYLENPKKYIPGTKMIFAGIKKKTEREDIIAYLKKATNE
Sequence of Cytochrome c L95V, P00004 (P00004 whole entry L95V): as the sequence (P00004 whole entry L95I) above, with I95V counted along it
Sequence of Cytochrome c wild type, P00004 (P00004 whole entry): as the sequence (P00004 whole entry L95I) above, with I95L counted along it
Sequence of Cytochrome c L95A, P00004 (P00004 whole entry L95A): as the sequence (P00004 whole entry L95I) above, with I95A counted along it

Row | Substance | ddG of mutation (higher = less stable) (structure 1AKK) | denaturant m value (structure 1AKK) | denaturant midpoint (higher = more stable) (structure 1AKK) | unfolding free energy (structure 1AKK) | denaturant m value | denaturant midpoint (higher = more stable) | unfolding free energy
1 | Cytochrome c L95I, P00004 | -0.837 kJ/mol | 4 kcal/mol/M | 2.47 M | 41.4 kJ/mol |  |  | 
2 | Cytochrome c L95A, P00004 | 14.6 kJ/mol | 3.7 kcal/mol/M | 1.67 M | 25.9 kJ/mol |  |  | 
3 | Cytochrome c wild type, P00004 |  |  |  |  | 3.5 kcal/mol/M | 2.77 M | 40.6 kJ/mol
4 | Cytochrome c L95V, P00004 | 3.35 kJ/mol | 3.6 kcal/mol/M | 2.47 M | 37.2 kJ/mol |  |  | 
